Molecular target: T1, Ncc ligated to ZHk (P. furiosus, UniProt P58301 1-386; P58301 390-497)
T1 construct: Rad50 of P. furiosus, aa 1-386 (from Ncc); OaAEP1 ligation scar; replaces the natural 'LGD' (N from Ncc, GL from the N-terminus of ZHk); Rad50 of P. furiosus, Zn Hook domain, aa 390-497 (from ZHk); The ZHk part is uniformly deuterated and ILVM side-chain methyl labelled (isotopes only); also called Ncc-ZHk; Ncc-ZnHk; source: OaAEP1 ligation of Ncc (E. coli) to ZHk (E. coli, deuterated minimal …)
T1 chain: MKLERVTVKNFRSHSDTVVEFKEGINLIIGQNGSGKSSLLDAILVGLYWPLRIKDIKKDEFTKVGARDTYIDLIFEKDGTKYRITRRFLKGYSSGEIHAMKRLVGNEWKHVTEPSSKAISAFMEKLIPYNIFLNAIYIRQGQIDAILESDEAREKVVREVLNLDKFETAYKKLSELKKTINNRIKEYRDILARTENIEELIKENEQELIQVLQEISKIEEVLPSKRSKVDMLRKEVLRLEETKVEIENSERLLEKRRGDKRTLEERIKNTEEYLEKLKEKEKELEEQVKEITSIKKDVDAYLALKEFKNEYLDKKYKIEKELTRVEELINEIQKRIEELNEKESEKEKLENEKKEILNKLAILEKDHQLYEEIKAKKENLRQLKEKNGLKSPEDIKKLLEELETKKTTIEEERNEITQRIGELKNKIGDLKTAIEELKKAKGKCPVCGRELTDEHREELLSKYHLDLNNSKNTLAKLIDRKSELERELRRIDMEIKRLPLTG
Assay: co-purification on a Ni affinity column; purified ligation mixture after TEV cleavage, separated on a HisTrap HP column; a 6His tag remains only on the C-terminus of ZHk in Ncc-ZHk; unreacted products in the flowthrough, target in the elution
Conditions: both partners purified

binding result: binds
B1: Pf Rad50 C-Terminal coiled-coil-NBD (aa 503 – 882) after TEV cleavage (domain or fragment, P. furiosus)
chain: GTVAEQIRSIEEELNVVNLEKIEKNATEYEKLLEELRTLEGRIRGLAEDLKKLAPLEKKLAALIHKKQELEKELKELNTKLESFGFKSVEDLDSKLRELEEIYKRYLTLLNSKKELEITQREIAKAKETLEMSFEELAEVEADIERIEKKLSQLKQKYNEEEYKKKREEKEELEKELARLEAQKKELEKRRDTIKSTLEKLKAEKENRERVKKEIKDLEKAKDFTEELIEKVKKYKALAREAALSKIGELASEIFAEFTEGKYSEVVVRAEENKVRLFVVWEGKERPLTFLSGGERIALGLAFRLAMSLYLAGEISLLILDEPTPYLDEERRRKLITIMERYLKKIPQVILVSHDEELKDAADHVIRISLENGSSKVEVVS
notes: N-terminal Gly exposed by TEV cleavage; replaces residue 502 of Rad50; also called ccC; TEV-cleaved ccC; source: E. coli BL21 Codon+, co-expressed with Ncc, purified, tag removed with TEV protease; not shown: His6 (MK-HHHHHH-ENLYFQ, with TEV cleavage site), N-terminal, cleaved

Source: article PMC10149453, “Three segment ligation of a 104 kDa multi-domain protein by SrtA and OaAEP1” (Journal of Biomolecular Nmr, 2022)
